The results in this text go back to patent publication US20250250355A1 (BIOSION, published 2025).

Like-named read-outs stand apart in the source and are kept apart here.

Test [1] has as its target human SIRPα-isoform 2-his protein (human). Briefly: indirect ELISA on coated human SIRPα-isoform 2-his, OD(450-630); plateau at OD about 1.0.
The target is the same in test [2]. Briefly: indirect ELISA on coated human SIRPα-isoform 2-his, OD(450-630). (An ELISA detects its analyte on a solid surface through an enzyme-linked reagent.)
In test [3] the target is T1, human SIRPα-V8-his protein (human, UniProt P78324 31-370, limits assumed). Briefly: indirect ELISA on coated human SIRPα-V8-his, OD(450-630); curve not visible in the scan.
The next test concerns the target T2, mouse SIRPα-his (mouse, UniProt P97797 35-363, limits assumed).
T2 chain: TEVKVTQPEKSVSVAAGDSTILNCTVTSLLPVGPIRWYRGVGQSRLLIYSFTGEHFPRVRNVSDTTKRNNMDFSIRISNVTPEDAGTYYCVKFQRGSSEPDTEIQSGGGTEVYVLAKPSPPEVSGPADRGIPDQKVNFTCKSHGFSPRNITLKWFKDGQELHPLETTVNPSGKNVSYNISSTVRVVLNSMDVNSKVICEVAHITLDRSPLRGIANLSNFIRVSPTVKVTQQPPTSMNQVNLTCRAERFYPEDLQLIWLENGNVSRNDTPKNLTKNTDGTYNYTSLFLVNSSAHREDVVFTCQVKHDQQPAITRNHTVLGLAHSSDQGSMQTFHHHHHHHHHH
Briefly: indirect ELISA on coated mouse SIRPα-his, OD(450-630).

For test [4], the target named is human SIRPα-isoform 2-his protein (human). Briefly: indirect ELISA on coated human SIRPα-isoform 2-his, OD(450-630). This is another data set of the same source.
Test [5] has as its target T3, full length human SIRPβ on cell membranes (HEK293-SIRPβ cells; 293F cells expressing human SIRPβ) (human, UniProt O00241 30-398).
T3 construct: whole, on cells; also called cell surface human SIRPβ
In words: cell based binding FACS on HEK293-SIRPβ cells, MFI; curve not visible in the scan.

Test [6] concerns the target T4, full length human SIRPα on cell membranes (HEK293-SIRPα cells; 293F-SIRPα cells) (human, UniProt P78324 31-504).
T4 construct: whole, on cells; also called cell surface human SIRPα; cell surface SIRPα
In words: cell based binding FACS on HEK293-SIRPα cells, MFI; curve not visible in the scan.

Test [7] deals with T5, human SIRPα protein (soluble, used on 293F-CD47 cells) (human, UniProt P78324 31-370, limits assumed). In words: cell based blocking FACS on 293F-CD47 cells; soluble human SIRPα protein blocked from binding cell surface human CD47, MFI.
The target in test [8] is T4, full length human SIRPα on cell …. In words: cell based blocking FACS on 293F-SIRPα cells; blocked ligand: human CD47 protein (CD47-Fc), MFI.
Test [9] concerns the target T3, full length human SIRPβ on cell …. Briefly: cell based binding FACS on 293F cells expressing human SIRPβ, MFI.
Test [10] has as its target T4, full length human SIRPα on cell …. In words: cell based binding FACS on 293F cells expressing human SIRPα, MFI.
For test [11] the target is unchanged. The description is as above. The source holds these as a separate data set.
Test [12] has the same target. Briefly: cell based blocking FACS on 293F-SIRPα cells; blocked ligand: human CD47 protein (CD47-Fc), MFI. The source holds these as a separate data set.
For test [13], the target named is T5, human SIRPα protein (soluble, used on …). Briefly: cell based blocking FACS on 293F-CD47 cells; soluble human SIRPα protein blocked from binding cell surface human CD47, MFI. The source holds these as a separate data set.
Test [14] addresses T6, full length human SIRPγ endogenously expressed on Jurkat cells (human, UniProt Q9P1W8 29-387).
T6 construct: whole, on cells; also called human SIRPγ expressed on Jurkat cells
Briefly: cell based binding FACS on Jurkat cells (endogenous human SIRPγ), MFI; plateau at MFI about 330.

Test [15] has as its target T3, full length human SIRPβ on cell …. In words: cell based binding FACS on 293F cells expressing human SIRPβ, MFI. This is another data set of the same source.
Test [16] deals with T1, human SIRPα-V8-his protein. Briefly: indirect ELISA on coated human SIRPα-V8-his, OD(450-630).
The target of test [17] is T6, full length human SIRPγ endogenously …. In words: cell based binding FACS on Jurkat cells (endogenous human SIRPγ), MFI; curve not visible in the scan.
For test [18] the target is unchanged. Briefly: cell based binding FACS on Jurkat cells (endogenous human SIRPγ), MFI; plateau at MFI about 325.
In the next test the target is human SIRPα-his protein (human, UniProt P78324 31-370). In words: competitive ELISA on coated human SIRPα-his; blocked ligand: biotin-labeled human CD47-his, OD(450-630).
Test [19] deals with T7, recombinant human SIRPα-Fc protein (human, biotin-labeled (sites not given)).
T7 construct: also called biotin-labeled human SIRPα-Fc protein
Briefly: capture ELISA, antibody captured on anti-mouse IgG F(ab')2, biotin-labeled human SIRPα-Fc in solution, OD(450-630).

B1: KWAR23 (antibody, human IgG4 S228P, kappa, V domains shown)
VH: EVQLQQSGAELVKPGASVKLSCTASGFNIKDYYIHWVQQRTEQGLEWIGRIDPEDGETKYAPKFQDKATITADTSSNTAYLHLSSLTSEDTAVYYCARWGAYWGQGTLVTVSA
VL: QIVLTQSPAIMSASPGEKVTLTCSASSSVSSSYLYWYQQKPGSSPKLWIYSTSNLASGVPARFSGSGSGTSYSLTISSMEAEDAASYFCHQWSSYPRTFGAGTKLELKR
notes: also called BM
B1: the EC50 (as a rule, the concentration giving half of the maximal effect) in [1] was determined as 0.436 nM; in test [2] it was 0.409 nM; in test [3] it was 0.339 nM; in test [4] it was 0.307 nM; in test [5], 0.272 nM; in test [6], 0.383 nM. Besides, the EC50 was determined as 0.156 nM in test [9]; 0.309 nM in [10]; 0.307 nM in test [11]; 0.00724 nM in test [14]; 0.164 nM in test [15]; 0.255 nM in test [16]. For the same molecule, the EC50 is 0.0102 nM in test [17], 0.00761 nM in [18] and 0.0774 nM in [19]. In addition, in the test with mouse SIRPα-his, the binding result was “no binding (tested: ~67 nM)”. Further, the IC50 (as a rule, the point on the concentration scale where inhibition reaches its midpoint) was 0.241 nM in test [7]; 0.753 nM in test [8]; 0.731 nM in [12]; 0.25 nM in test [13]; 2 nM in the test with human SIRPα-his protein.
